For two molecules, ECL signal results are on record in patent US20120058906A1 (published 2012).

Assay [1] concerns the target T1, rHuman HGF R/c-MET/Fc Chimera, CF (R&D Systems Cat#358-MT/CF) (human, UniProt P08581 25-932).
T1 construct: Bought Fc chimera; also called HGF R/Fc; hepatocyte growth factor receptor; Fc part of the bought chimera not given
Description: ECL (MSD Multi-Spot) titration, antigen spotted on plate; Fab 0.51 µM; blank spot 1096.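 Also: blank spot per well as comparator with Hit at signal to blank ratio of 4 or more.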

In assay [2] the target is T2, Recombinant Human DLL4 (R&D Systems Cat#1506-D4/CF) (human, UniProt Q9NR61 27-524).
T2 construct: Bought recombinant protein; also called delta-like protein 4
The description is as above.

The target of assay [3] is T3, rHuman ErbB2/Fc Chimera, CF (R&D Systems Cat#1129-ER) (human, UniProt P04626 23-652).
T3 construct: Bought Fc chimera; also called HER2/neu; human epidermal growth factor 2 receptor; Fc part of the bought chimera not given
The description is as above.

Assay [4] has as its target T4, rHuman CD44/Fc Chimera, CF (R&D Systems Cat#3660-CD) (human, UniProt P16070 21-220).
T4 construct: Bought Fc chimera; Fc part of the bought chimera not given
The assay is described as above.

The target in assay [5] is T5, rHuman IGF-1 sR (IGF-1 sR), CF (R&D Systems Cat#391-GR) (human, UniProt P08069 31-932).
T5 construct: Bought soluble receptor; also called insulin-like growth factor-1 soluble receptor; IGF-R1
The assay is described as above.

The target in assay [6] is T1, rHuman HGF R/c-MET/Fc Chimera, CF (R&D …). Description: ECL (MSD Multi-Spot) titration, antigen spotted on plate; Fab 0.1275 µM; blank spot 530.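 Also: blank spot per well as comparator with Hit at signal to blank ratio of 4 or more.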
Assay [7] has as its target T2, Recombinant Human DLL4 (R&D Systems …). The assay is described as above.
In assay [8] the target is T3, rHuman ErbB2/Fc Chimera, CF (R&D …). Described as above.
Assay [9] concerns the target T4, rHuman CD44/Fc Chimera, CF (R&D Systems …). The description is as above.
In assay [10] the target is T5, rHuman IGF-1 sR (IGF-1 sR), CF (R&D …). The assay is described as above.
Assay [11] concerns the target T1, rHuman HGF R/c-MET/Fc Chimera, CF (R&D …). Description: ECL (MSD Multi-Spot) titration, antigen spotted on plate; Fab 0.00797 µM; blank spot 364.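 Also: blank spot per well as comparator with Hit at signal to blank ratio of 4 or more.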
Assay [12] concerns the target T2, Recombinant Human DLL4 (R&D Systems …). The description is as above.
Assay [13] has as its target T3, rHuman ErbB2/Fc Chimera, CF (R&D …). Described as above.
The target in assay [14] is T4, rHuman CD44/Fc Chimera, CF (R&D Systems …). The description is as above.
Assay [15] concerns the target T5, rHuman IGF-1 sR (IGF-1 sR), CF (R&D …). The description is as above.
In assay [16] the target is T1, rHuman HGF R/c-MET/Fc Chimera, CF (R&D …). Description: ECL (MSD Multi-Spot) titration, antigen spotted on plate; Fab 0.03188 µM; blank spot 536.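 Also: blank spot per well as comparator with Hit at signal to blank ratio of 4 or more.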
Assay [17] addresses T2, Recombinant Human DLL4 (R&D Systems …). The assay is described as above.
For assay [18], the target named is T3, rHuman ErbB2/Fc Chimera, CF (R&D …). Described as above.
The target of assay [19] is T4, rHuman CD44/Fc Chimera, CF (R&D Systems …). The assay is described as above.
The target of assay [20] is T5, rHuman IGF-1 sR (IGF-1 sR), CF (R&D …). The assay is described as above.
Assay [21] shares this target. The assay can be described thus: ECL (MSD Multi-Spot) titration, antigen spotted on plate; Fab 0.096 µM; blank spot 917.
Assay [22] shares this target. The assay can be described thus: ECL (MSD Multi-Spot) titration, antigen spotted on plate; Fab 0.0192 µM; blank spot 751.
For assay [23] the target is unchanged. The assay can be described thus: ECL (MSD Multi-Spot) titration, antigen spotted on plate; Fab 0.48 µM; blank spot 2945.

B1: Fab VH4-34_IGHD7-27*01_IGHJ4*01 & L5_IGKJ1*01 (Fab, V domains shown)
VH: QVQLQQWGAGLLKPSETLSLTCAVYGGSFSGYYWSWIRQPPGKGLEWIGEINHSGSTNYNPSLKSRVTISVDTSKNQFSLKLSSVTAADTAVYYCARANWGDYFDYWGQGTLVTVSS
VL: DIQMTQSPSSVSASVGDRVTITCRASQGISSWLAWYQQKPGKAPKLLIYAASSLQSGVPSRFSGSGSGTDFTLTISSLQPEDFATYYCQQANSFPPWTFGQGTKVEIKR
notes: Made as a Fab in E. coli: VH joined to the CH1 of Plasmid A (Flag and His tags), VL joined to the kappa constant region of Plasmid C
On to B1, for which the ECL signal is 1990 in assay [1]; 5180 in assay [2]; 1530 in assay [3]; 2010 in assay [4]; 2240 in assay [5]; 853 in assay [6]. Also, the ECL signal was determined as 2380 in [7]; 857 in assay [8]; 926 in assay [9]; 1040 in assay [10]; 419 in [11]; 872 in assay [12]. The ECL signal in assay [13] was 493; in assay [14], 490; in assay [15], 564; in assay [16] it was 693; in assay [17] it was 1280; in assay [18], 584. Further, the results for the ECL signal in [19] and in assay [20] were 653 and 765, respectively.

B2: Fab VH1-46_IGHD6-13*01_IGHJ4*01 & A27_IGKJ1*01 (Fab, V domains shown)
VH: QVQLVQSGAEVKKPGASVKVSCKASGYTFTSYYMHWVRQAPGQGLEWMGIINPSGGSTSYAQKFQGRVTMTRDTSTSTVYMELSSLRSEDTAVYYCAREGYSSSWYDYFDYWGQGTLVTVSS
VL: not shown
notes: as for B1
B2: the ECL signal in [21] is 2450; in [22], 1830; in assay [23], 8930.
